Results published in US20120282643A1.
Blank lines part the entries; values can stand above or below the substance they belong to.

Biological target: sulfite reductase tagged with a C-terminal GFP S11 (SEQ ID NO: 16)
Test: cell-based or functional assay

- Final Fluorescence (Ident. A2): 4110
- Final Fluorescence (Ident. A3): 1990
- Final Fluorescence (Ident. A6): 5000
- Final Fluorescence (Ident. A8): 2360
- Final Fluorescence (Ident. A9): 4990
- Final Fluorescence (Ident. A10): 4930
- Final Fluorescence (Ident. B1): 4790
- Final Fluorescence (Ident. B2): 3260
- Final Fluorescence (Ident. B3): 2360
- Final Fluorescence (Ident. B4): 1760
- Final Fluorescence (Ident. B5): 2740
- Final Fluorescence (Ident. B6): 2950
- Final Fluorescence (Ident. C2): 2250
- Final Fluorescence (Ident. C3): 2200
- Final Fluorescence (Ident. C5): 2540
- Final Fluorescence (Ident. C9): 1830
- Final Fluorescence (Ident. D5): 2420
- Final Fluorescence (Ident. D9): 1340
- Final Fluorescence (Ident. D12): 3130
- Final Fluorescence (Ident. E1): 4830
- Final Fluorescence (Ident. E2): 1690
- Final Fluorescence (Ident. E3): 1980
- Final Fluorescence (Ident. E5): 1800
- Final Fluorescence (Ident. E6): 2560
- Final Fluorescence (Ident. F1): 4070
- Final Fluorescence (Ident. F2): 1800
- Final Fluorescence (Ident. F3): 2290
- Final Fluorescence (Ident. F4): 1540
- Final Fluorescence (Ident. F5): 2900
- Final Fluorescence (Ident. F7): 2850
- Final Fluorescence (Ident. F9): 2710
- Final Fluorescence (Ident. G1): 4400
- Final Fluorescence (Ident. G3): 2410
- Final Fluorescence (Ident. G6): 2580
- Final Fluorescence (Ident. G7): 2130
- Final Fluorescence (Ident. H1): 4140
- Final Fluorescence (Ident. H4): 2360
- Final Fluorescence (Ident. H7): 3870
- Final Fluorescence (Ident. H8): 2820
- Initial Rate (Ident. A2): 14100
- Initial Rate (Ident. A3): 8810
- Initial Rate (Ident. A6): 18800
- Initial Rate (Ident. A8): 11700
- Initial Rate (Ident. A9): 17700
- Initial Rate (Ident. A10): 16900
- Initial Rate (Ident. B1): 15700
- Initial Rate (Ident. B2): 11900
- Initial Rate (Ident. B3): 8260
- Initial Rate (Ident. B4): 9110
- Initial Rate (Ident. B5): 10300
- Initial Rate (Ident. B6): 10600
- Initial Rate (Ident. C2): 7890
- Initial Rate (Ident. C3): 7950
- Initial Rate (Ident. C5): 9490
- Initial Rate (Ident. C9): 7200
- Initial Rate (Ident. D5): 8850
- Initial Rate (Ident. D9): 7490
- Initial Rate (Ident. D12): 12000
- Initial Rate (Ident. E1): 11700
- Initial Rate (Ident. E2): 7780
- Initial Rate (Ident. E3): 6770
- Initial Rate (Ident. E5): 6370
- Initial Rate (Ident. E6): 9260
- Initial Rate (Ident. F1): 9890
- Initial Rate (Ident. F2): 6690
- Initial Rate (Ident. F3): 7600
- Initial Rate (Ident. F4): 7760
- Initial Rate (Ident. F5): 10200
- Initial Rate (Ident. F7): 10000
- Initial Rate (Ident. F9): 9770
- Initial Rate (Ident. G1): 11000
- Initial Rate (Ident. G3): 10800
- Initial Rate (Ident. G6): 11900
- Initial Rate (Ident. G7): 9680
- Initial Rate (Ident. H1): 10000
- Initial Rate (Ident. H4): 10400
- Initial Rate (Ident. H7): 12900
- Initial Rate (Ident. H8): 10900
Substance: Split-CFP S1-10 (D19E, D21E, Y66W, H148D, T205S)

- Final Fluorescence (Ident. C4): 2270
- Final Fluorescence (Ident. G5): 1360
- Initial Rate (Ident. C4): 7790
- Initial Rate (Ident. G5): 6070
Substance: Split-CFP S1-10 (D19E, D21E, Y66W, H148D, T205S, S208L)

- Final Fluorescence (Ident. A7): 2550
- Final Fluorescence (Ident. C6): 1120
- Final Fluorescence (Ident. C7): 1730
- Final Fluorescence (Ident. C8): 1010
- Final Fluorescence (Ident. C10): 1720
- Final Fluorescence (Ident. D7): 744
- Final Fluorescence (Ident. D10): 1200
- Final Fluorescence (Ident. E8): 1140
- Final Fluorescence (Ident. G2): 1910
- Final Fluorescence (Ident. G8): 1420
- Final Fluorescence (Ident. G9): 1700
- Final Fluorescence (Ident. H3): 2130
- Final Fluorescence (Ident. H5): 2000
- Final Fluorescence (Ident. H9): 1340
- Initial Rate (Ident. A7): 8100
- Initial Rate (Ident. C6): 3590
- Initial Rate (Ident. C7): 6280
- Initial Rate (Ident. C8): 4550
- Initial Rate (Ident. C10): 6180
- Initial Rate (Ident. D7): 3120
- Initial Rate (Ident. D10): 4290
- Initial Rate (Ident. E8): 5330
- Initial Rate (Ident. G2): 3790
- Initial Rate (Ident. G8): 9440
- Initial Rate (Ident. G9): 7820
- Initial Rate (Ident. H3): 6870
- Initial Rate (Ident. H5): 5750
- Initial Rate (Ident. H9): 7800
Substance: Split-CFP S1-10 (D19E, D21N, Y66W, H148D, T205S)

- Final Fluorescence (Ident. B9): 703
- Final Fluorescence (Ident. C12): 1740
- Initial Rate (Ident. B9): 2230
- Initial Rate (Ident. C12): 5120
Substance: Split-CFP S1-10 (D19E, D21N, Y66W, S99T, H148D, T205S)

- Final Fluorescence (Ident. A5): 2860
- Initial Rate (Ident. A5): 9770
Substance: Split-CFP S1-10 (D19E, Y66W, H148D, T205S) (from UniProt P42212 1-214)

- Final Fluorescence (Ident. G4): 5100
- Initial Rate (Ident. G4): 13000
Substance: Split-CFP S1-10 (D21E, Y66W, H148D, T205S) (from UniProt P42212 1-214)

- Final Fluorescence (Ident. A12): 990
- Final Fluorescence (Ident. B12): 1790
- Initial Rate (Ident. A12): 3060
- Initial Rate (Ident. B12): 4900
Substance: Split-CFP S1-10 (D21N, Y66W, H148D, T205S) (from UniProt P42212 1-214)

- Final Fluorescence (Ident. F12): 868
- Initial Rate (Ident. F12): 1980
Substance: Split-CFP S1-10 (D21N, Y66W, T205S) (from UniProt P42212 1-214)

- Final Fluorescence (Ident. B8): 1640
- Final Fluorescence (Ident. B10): 3340
- Final Fluorescence (Ident. D2): 3360
- Initial Rate (Ident. B8): 8930
- Initial Rate (Ident. B10): 11500
- Initial Rate (Ident. D2): 11500
Substance: Split-CFP S1-10 (V16I, D19E, D21E, Y66W, H148D, T205S)

- Final Fluorescence (Ident. E12): 1070
- Initial Rate (Ident. E12): 2040
Substance: Split-CFP S1-10 (V16I, D21E, Y66W, T205S) (from UniProt P42212 1-214)

- Final Fluorescence (Ident. D1): 8860
- Final Fluorescence (Ident. D4): 3740
- Final Fluorescence (Ident. D6): 4100
- Final Fluorescence (Ident. D8): 3750
- Final Fluorescence (Ident. E4): 3280
- Final Fluorescence (Ident. F8): 1310
- Final Fluorescence (Ident. H2): 6570
- Initial Rate (Ident. D1): 14500
- Initial Rate (Ident. D4): 7990
- Initial Rate (Ident. D6): 10000
- Initial Rate (Ident. D8): 8440
- Initial Rate (Ident. E4): 7280
- Initial Rate (Ident. F8): 3820
- Initial Rate (Ident. H2): 9060
Substance: Split-CFP S1-10 (Y66W, H148D, T205S) (from UniProt P42212 1-214)

- Final Fluorescence (Ident. G12): 382
- Final Fluorescence (Ident. H12): 425
- Initial Rate (Ident. G12): 3740
- Initial Rate (Ident. H12): 3600
Substance: Split-CFP S1-10 (Y66W, T205S) (from UniProt P42212 1-214)

- Final Fluorescence (Ident. F6): 2910
- Initial Rate (Ident. F6): 10900
Substance: Split-CFP plate clone F6 (D19E, D21E, H148D, T205S) (from UniProt P42212 1-214)

- Green Fluorescence (488/510) (clone F3): 10.5
- Ratio Yellow/Green Fluorescence (clone F3): 11.4
- Yellow Fluorescence (510/532) (clone F3): 120
Substance: Split-YFP S1-10 (C70S, T203Y) (from UniProt P42212 1-214)

- Green Fluorescence (488/510) (clone H1): 7.41
- Ratio Yellow/Green Fluorescence (clone H1): 18.7
- Yellow Fluorescence (510/532) (clone H1): 138
Substance: Split-YFP S1-10 (R80K, T203Y) (from UniProt P42212 1-214)

- Green Fluorescence (488/510) (clone G11): 7.47
- Ratio Yellow/Green Fluorescence (clone G11): 18.9
- Yellow Fluorescence (510/532) (clone G11): 141
Substance: Split-YFP S1-10 (S99F, T203Y, T205S) (from UniProt P42212 1-214)

- Green Fluorescence (488/510) (clone C5): 5.07
- Ratio Yellow/Green Fluorescence (clone C5): 20.9
- Yellow Fluorescence (510/532) (clone C5): 106
Substance: Split-YFP S1-10 (T9N, T65L, T203Y, T205S) (from UniProt P42212 1-214)

- Green Fluorescence (488/510) (clone C4): 7.17
- Ratio Yellow/Green Fluorescence (clone C4): 10.6
- Yellow Fluorescence (510/532) (clone C4): 76.2
Substance: Split-YFP S1-10 (T65A, T203Y, T205S) (from UniProt P42212 1-214)

- Green Fluorescence (488/510) (clone D3): 7.15
- Ratio Yellow/Green Fluorescence (clone D3): 17.9
- Yellow Fluorescence (510/532) (clone D3): 128
Substance: Split-YFP S1-10 (T65G, P192H, T203Y, T205S) (from UniProt P42212 1-214)

- Green Fluorescence (488/510) (clone E11): 4.51
- Ratio Yellow/Green Fluorescence (clone E11): 22.5
- Yellow Fluorescence (510/532) (clone E11): 101
Substance: Split-YFP S1-10 (T65G, S99F, T203Y, T205S) (from UniProt P42212 1-214)

- Green Fluorescence (488/510) (clone A9): 4.5
- Green Fluorescence (488/510) (clone B2): 5.85
- Green Fluorescence (488/510) (clone E7): 6.91
- Ratio Yellow/Green Fluorescence (clone A9): 24.3
- Ratio Yellow/Green Fluorescence (clone B2): 19.5
- Ratio Yellow/Green Fluorescence (clone E7): 17
- Yellow Fluorescence (510/532) (clone A9): 109
- Yellow Fluorescence (510/532) (clone B2): 114
- Yellow Fluorescence (510/532) (clone E7): 117
Substance: Split-YFP S1-10 (T65G, T203Y) (from UniProt P42212 1-214)

- Green Fluorescence (488/510) (clone A7): 2.77
- Ratio Yellow/Green Fluorescence (clone A7): 28.5
- Yellow Fluorescence (510/532) (clone A7): 79.1
Substance: Split-YFP S1-10 (T65L, V176I, T203Y, T205S) (from UniProt P42212 1-214)
